Measured values published in publication PMC10397247.
Blank lines part the entries; values can stand above or below the binder they belong to.

Experiments:
Test in all cases: two-hybrid library CCmax;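 note: natural log of median RNA to DNA barcode read ratio; higher means stronger binding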
4H2698-AA = target: T1, 4H2698-AA
T1 chain: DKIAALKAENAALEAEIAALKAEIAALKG

4H2725-AA = target: T2, 4H2725-AA; conditions: mean of both orientations
T2 chain: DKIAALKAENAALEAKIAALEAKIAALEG

4H2865-AA = target: T3, 4H2865-AA; conditions: mean of both orientations
T3 chain: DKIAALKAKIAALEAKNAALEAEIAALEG

4H3009-AA = target: T4, 4H3009-AA; conditions: mean of both orientations
T4 chain: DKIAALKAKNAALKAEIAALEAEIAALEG

4H3016-AA = target: T5, 4H3016-AA; conditions: mean of both orientations
T5 chain: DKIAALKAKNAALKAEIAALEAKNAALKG

4H310-AA = target: T6, 4H310-AA; conditions: mean of both orientations
T6 chain: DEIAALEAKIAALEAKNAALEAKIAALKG

4H3120-AA = target: T7, 4H3120-AA; conditions: mean of both orientations
T7 chain: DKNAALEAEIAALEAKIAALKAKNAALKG

4H3130-AA = target: T8, 4H3130-AA; conditions: mean of both orientations
T8 chain: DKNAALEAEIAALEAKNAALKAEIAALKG

4H3165-AA = target: T9, 4H3165-AA; conditions: mean of both orientations
T9 chain: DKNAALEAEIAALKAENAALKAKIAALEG

4H3381-AA = target: T10, 4H3381-AA; conditions: mean of both orientations
T10 chain: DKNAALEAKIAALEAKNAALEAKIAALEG

4H3395-AA = target: T11, 4H3395-AA; conditions: mean of both orientations
T11 chain: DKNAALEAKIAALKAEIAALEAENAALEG

4H3410-AA = target: T12, 4H3410-AA; conditions: mean of both orientations
T12 chain: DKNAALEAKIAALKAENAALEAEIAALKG

4H3590-AA = target: T13, 4H3590-AA; conditions: mean of both orientations
T13 chain: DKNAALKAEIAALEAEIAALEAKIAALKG

4H3697-AA = target: T14, 4H3697-AA; conditions: mean of both orientations
T14 chain: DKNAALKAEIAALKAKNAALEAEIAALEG

4H3753-AA = target: T15, 4H3753-AA; conditions: mean of both orientations
T15 chain: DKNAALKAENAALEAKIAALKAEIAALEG

4H3865-AA = target: T16, 4H3865-AA; conditions: mean of both orientations
T16 chain: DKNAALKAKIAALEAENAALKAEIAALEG

4H458-AA = target: T17, 4H458-AA; conditions: mean of both orientations
T17 chain: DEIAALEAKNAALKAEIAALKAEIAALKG

4H485-AA = target: T18, 4H485-AA; conditions: mean of both orientations
T18 chain: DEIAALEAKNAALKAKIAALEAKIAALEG

4H536-AA = target: T19, 4H536-AA; conditions: mean of both orientations
T19 chain: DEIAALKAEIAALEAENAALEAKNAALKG

4H570-AA = target: T20, 4H570-AA; conditions: mean of both orientations
T20 chain: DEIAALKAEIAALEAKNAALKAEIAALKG

4H629-AA = target: T21, 4H629-AA; conditions: mean of both orientations
T21 chain: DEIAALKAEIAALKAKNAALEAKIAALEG

4H710-AA = target: T22, 4H710-AA; conditions: mean of both orientations
T22 chain: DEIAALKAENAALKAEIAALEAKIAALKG

4H745-AA = target: T23, 4H745-AA; conditions: mean of both orientations
T23 chain: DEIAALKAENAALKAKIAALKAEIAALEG

4H797-AA = target: T24, 4H797-AA; conditions: mean of both orientations
T24 chain: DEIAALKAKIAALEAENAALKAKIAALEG

4H850-AA = target: T25, 4H850-AA; conditions: mean of both orientations
T25 chain: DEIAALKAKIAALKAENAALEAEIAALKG

4H891-AA = target: T26, 4H891-AA; conditions: mean of both orientations
T26 chain: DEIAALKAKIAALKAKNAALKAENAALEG

4H909-AA = target: T27, 4H909-AA; conditions: mean of both orientations
T27 chain: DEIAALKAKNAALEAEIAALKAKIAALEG

4H930-AA = target: T28, 4H930-AA; conditions: mean of both orientations
T28 chain: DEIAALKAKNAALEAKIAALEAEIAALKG

4H94-AA = target: T29, 4H94-AA; conditions: mean of both orientations
T29 chain: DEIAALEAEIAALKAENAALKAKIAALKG

4H2617-AA = target: T30, 4H2617-AA
T30 chain: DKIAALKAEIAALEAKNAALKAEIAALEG

4H2642-AA = target: T31, 4H2642-AA; conditions: mean of both orientations
T31 chain: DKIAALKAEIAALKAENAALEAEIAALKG

4H2729-AA = target: T32, 4H2729-AA; conditions: mean of both orientations
T32 chain: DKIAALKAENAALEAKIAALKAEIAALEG

4H2754-AA = target: T33, 4H2754-AA; conditions: mean of both orientations
T33 chain: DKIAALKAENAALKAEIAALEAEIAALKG

4H2837-AA = target: T34, 4H2837-AA; conditions: mean of both orientations
T34 chain: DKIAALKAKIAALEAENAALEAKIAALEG

4H2883-AA = target: T35, 4H2883-AA; conditions: mean of both orientations
T35 chain: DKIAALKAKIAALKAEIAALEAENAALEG

4H2944-AA = target: T36, 4H2944-AA; conditions: mean of both orientations
T36 chain: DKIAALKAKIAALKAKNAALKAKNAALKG

4H2949-AA = target: T37, 4H2949-AA; conditions: mean of both orientations
T37 chain: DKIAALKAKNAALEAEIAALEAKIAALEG

4H3112-AA = target: T38, 4H3112-AA
T38 chain: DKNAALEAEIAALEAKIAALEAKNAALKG

4H317-AA = target: T39, 4H317-AA; conditions: mean of both orientations
T39 chain: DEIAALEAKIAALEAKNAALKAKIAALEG

4H3343-AA = target: T40, 4H3343-AA; conditions: mean of both orientations
T40 chain: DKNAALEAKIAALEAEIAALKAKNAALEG

4H335-AA = target: T41, 4H335-AA; conditions: mean of both orientations
T41 chain: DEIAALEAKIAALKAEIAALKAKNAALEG

4H342-AA = target: T42, 4H342-AA; conditions: mean of both orientations
T42 chain: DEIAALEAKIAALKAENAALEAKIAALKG

4H3427-AA = target: T43, 4H3427-AA; conditions: mean of both orientations
T43 chain: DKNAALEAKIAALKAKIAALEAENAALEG

4H3606-AA = target: T44, 4H3606-AA; conditions: mean of both orientations
T44 chain: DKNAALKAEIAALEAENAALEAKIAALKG

4H3627-AA = target: T45, 4H3627-AA; conditions: mean of both orientations
T45 chain: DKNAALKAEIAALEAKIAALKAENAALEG

4H3655-AA = target: T46, 4H3655-AA; conditions: mean of both orientations
T46 chain: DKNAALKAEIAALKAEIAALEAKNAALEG

4H3844-AA = target: T47, 4H3844-AA; conditions: mean of both orientations
T47 chain: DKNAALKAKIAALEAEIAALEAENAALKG

4H3921-AA = target: T48, 4H3921-AA; conditions: mean of both orientations
T48 chain: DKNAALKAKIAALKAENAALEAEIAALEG

4H429-AA = target: T49, 4H429-AA; conditions: mean of both orientations
T49 chain: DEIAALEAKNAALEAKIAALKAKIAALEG

4H454-AA = target: T50, 4H454-AA; conditions: mean of both orientations
T50 chain: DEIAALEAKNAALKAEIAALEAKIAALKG

4H48-AA = target: T51, 4H48-AA; conditions: mean of both orientations
T51 chain: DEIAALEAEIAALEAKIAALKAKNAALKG

4H566-AA = target: T52, 4H566-AA; conditions: mean of both orientations
T52 chain: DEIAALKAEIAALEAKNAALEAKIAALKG

4H605-AA = target: T53, 4H605-AA; conditions: mean of both orientations
T53 chain: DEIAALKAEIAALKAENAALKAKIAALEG

4H678-AA = target: T54, 4H678-AA; conditions: mean of both orientations
T54 chain: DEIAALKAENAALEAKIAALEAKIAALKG

4H717-AA = target: T55, 4H717-AA; conditions: mean of both orientations
T55 chain: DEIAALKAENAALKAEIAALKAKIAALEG

4H780-AA = target: T56, 4H780-AA; conditions: mean of both orientations
T56 chain: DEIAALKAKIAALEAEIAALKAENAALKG

4H794-AA = target: T57, 4H794-AA; conditions: mean of both orientations
T57 chain: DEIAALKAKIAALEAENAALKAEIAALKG

4H881-AA = target: T58, 4H881-AA; conditions: mean of both orientations
T58 chain: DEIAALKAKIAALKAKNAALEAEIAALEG

4H906-AA = target: T59, 4H906-AA; conditions: mean of both orientations
T59 chain: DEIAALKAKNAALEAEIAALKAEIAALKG

4H993-AA = target: T60, 4H993-AA; conditions: mean of both orientations
T60 chain: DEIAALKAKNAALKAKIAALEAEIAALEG

- interaction score (4H2698-AA): 2.27
- interaction score (4H2725-AA): -1.02
- interaction score (4H2865-AA): 0.889
- interaction score (4H3009-AA): 2.02
- interaction score (4H3016-AA): 0.539
- interaction score (4H310-AA): -0.185
- interaction score (4H3120-AA): -1.3
- interaction score (4H3130-AA): 1.19
- interaction score (4H3165-AA): -1.39
- interaction score (4H3381-AA): -0.904
- interaction score (4H3395-AA): -1.65
- interaction score (4H3410-AA): -1.56
- interaction score (4H3590-AA): -0.95
- interaction score (4H3697-AA): -1.12
- interaction score (4H3753-AA): -1
- interaction score (4H3865-AA): -1.07
- interaction score (4H458-AA): 2.26
- interaction score (4H485-AA): 1.49
- interaction score (4H536-AA): -1.49
- interaction score (4H570-AA): 0.35
- interaction score (4H629-AA): -1.54
- interaction score (4H710-AA): 1.79
- interaction score (4H745-AA): 2.2
- interaction score (4H797-AA): -1.25
- interaction score (4H850-AA): -0.992
- interaction score (4H891-AA): -1.59
- interaction score (4H909-AA): -0.0319
- interaction score (4H930-AA): -0.113
- interaction score (4H94-AA): -0.915
Binder: DKIAALKAENAALEAEIAALKAEIAALKG [4H2698-AA]

- interaction score (4H2617-AA): 1.29
- interaction score (4H2642-AA): 2.25
- interaction score (4H2729-AA): 2.54
- interaction score (4H2754-AA): -1.08
- interaction score (4H2837-AA): 2.22
- interaction score (4H2883-AA): -1.02
- interaction score (4H2944-AA): -0.31
- interaction score (4H2949-AA): 1.53
- interaction score (4H3112-AA): -1.06
- interaction score (4H317-AA): 1.65
- interaction score (4H3343-AA): -1.31
- interaction score (4H335-AA): 0.00978
- interaction score (4H342-AA): 2.32
- interaction score (4H3427-AA): -0.774
- interaction score (4H3606-AA): 2.03
- interaction score (4H3627-AA): 0.895
- interaction score (4H3655-AA): -1.76
- interaction score (4H3844-AA): -1.39
- interaction score (4H3921-AA): 0.979
- interaction score (4H429-AA): 0.393
- interaction score (4H454-AA): 2.09
- interaction score (4H48-AA): -0.511
- interaction score (4H566-AA): 2.42
- interaction score (4H605-AA): 0.918
- interaction score (4H678-AA): 0.485
- interaction score (4H717-AA): -2.09
- interaction score (4H780-AA): -1.9
- interaction score (4H794-AA): 1.15
- interaction score (4H881-AA): 1.37
- interaction score (4H906-AA): -0.74
- interaction score (4H993-AA): -0.54
Binder: DKIAALKAEIAALEAKNAALKAEIAALEG [4H2617-AA]
